Data on one molecule can be found in patent publication US20210238276A1 (INTEGRAL MOLECULAR, published 2021).

Assay in all cases: flow cytometry, alanine-scan library in HEK-293T, with cytochalasin B
A general note: A flow cytometer gives signals particle by particle.

In one assay the target is T1, hsGLUT4 E162A (human, UniProt P14672 1-509).
T1 sequence: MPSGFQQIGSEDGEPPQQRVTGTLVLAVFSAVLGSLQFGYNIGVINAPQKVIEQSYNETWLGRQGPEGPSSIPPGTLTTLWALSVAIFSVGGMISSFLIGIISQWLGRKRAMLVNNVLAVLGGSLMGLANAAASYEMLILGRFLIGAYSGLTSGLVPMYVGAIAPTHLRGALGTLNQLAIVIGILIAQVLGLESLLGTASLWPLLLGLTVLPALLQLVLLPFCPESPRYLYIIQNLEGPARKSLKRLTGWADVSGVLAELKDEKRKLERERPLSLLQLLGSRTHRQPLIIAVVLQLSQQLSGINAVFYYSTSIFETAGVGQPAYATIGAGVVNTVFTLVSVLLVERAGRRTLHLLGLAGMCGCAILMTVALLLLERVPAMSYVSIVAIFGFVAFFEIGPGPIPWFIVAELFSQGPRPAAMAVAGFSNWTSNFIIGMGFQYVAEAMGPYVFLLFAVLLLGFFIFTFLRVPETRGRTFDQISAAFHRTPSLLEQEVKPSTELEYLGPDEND
Here is the method: (§1) Because of the state-dependence of the isolated MAbs, we next wished to understand the mechanism by which each MAb could recognize GLUT4 in its different conformations. The residues required for binding of each MAb were determined using shotgun mutagenesis comprehensive alanine scanning (Davidson E & Doranz B J (2014) A High-Throughput Shotgun Mutagenesis Approach to Mapping B-cell Antibody Epitopes. Immunology, which is hereby incorporated by reference in its entirety). All residues of hsGLUT4 were individually mutated to alanine, with existing alanines changed to serines. Mutations were obtained for 508 of the 509 residues of GLUT4 (excluding the initiating methionine). The entire mutation library was transfected into human HEK-293T cells in a 384-well array format (one clone per well) and assessed for immunoreactivity using high-throughput flow cytometry.
(§2) HEK-293T cells were transfected by CaPO₄ with plasmids in 6-well culture plates (Falcon) at 750,000 cells/well. At 48 hours post transfection, cells were stained with anti-V5 and anti-GLUT4 MAbs (purified scFv, 2 μg/ml) followed by biotinylated goat anti-mouse or human antibody (1:500) and streptavidin-PerCP (1:500). Fluorescence was detected using an Intellicyt high-throughput flow cytometer (HTFC; Intellicyt, Albuquerque, N. Mex.). For cell permeabilization, cells were treated with saponin at 0.1% in PBS for 20 minutes. To discriminate intact (live) and permeabilized (dead) cells without the use of detergent, propidium iodide (PI) was added to HEK-293T cells at 1 ug/ml just prior to flow cytometry. Where indicated, cytochalasin B (Sigma) was used at a final concentration of 10 uM and phloretin (Sigma) was used at a final concentration of 100 uM, each added in 10% NGS for 30 minutes prior to antibody staining as well as included with the primary antibody.

The target of a further assay is T2, hsGLUT4 I163A (human, UniProt P14672 1-509).
T2 sequence: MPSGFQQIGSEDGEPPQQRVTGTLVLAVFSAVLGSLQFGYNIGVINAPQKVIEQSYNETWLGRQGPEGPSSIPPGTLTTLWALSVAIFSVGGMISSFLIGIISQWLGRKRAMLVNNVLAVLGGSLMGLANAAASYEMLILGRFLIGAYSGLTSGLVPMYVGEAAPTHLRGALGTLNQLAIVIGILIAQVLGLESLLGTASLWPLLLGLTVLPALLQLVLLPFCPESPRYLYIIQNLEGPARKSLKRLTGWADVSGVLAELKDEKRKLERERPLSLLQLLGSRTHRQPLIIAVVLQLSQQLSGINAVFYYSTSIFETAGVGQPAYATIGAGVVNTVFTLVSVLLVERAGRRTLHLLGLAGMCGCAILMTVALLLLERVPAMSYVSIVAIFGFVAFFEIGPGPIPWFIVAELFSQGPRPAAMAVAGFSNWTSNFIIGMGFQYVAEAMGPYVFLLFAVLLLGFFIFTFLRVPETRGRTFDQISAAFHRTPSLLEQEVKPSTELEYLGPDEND
The procedure: as §1, §2

The target of another assay is T3, hsGLUT4 E507A (human, UniProt P14672 1-509).
T3 sequence: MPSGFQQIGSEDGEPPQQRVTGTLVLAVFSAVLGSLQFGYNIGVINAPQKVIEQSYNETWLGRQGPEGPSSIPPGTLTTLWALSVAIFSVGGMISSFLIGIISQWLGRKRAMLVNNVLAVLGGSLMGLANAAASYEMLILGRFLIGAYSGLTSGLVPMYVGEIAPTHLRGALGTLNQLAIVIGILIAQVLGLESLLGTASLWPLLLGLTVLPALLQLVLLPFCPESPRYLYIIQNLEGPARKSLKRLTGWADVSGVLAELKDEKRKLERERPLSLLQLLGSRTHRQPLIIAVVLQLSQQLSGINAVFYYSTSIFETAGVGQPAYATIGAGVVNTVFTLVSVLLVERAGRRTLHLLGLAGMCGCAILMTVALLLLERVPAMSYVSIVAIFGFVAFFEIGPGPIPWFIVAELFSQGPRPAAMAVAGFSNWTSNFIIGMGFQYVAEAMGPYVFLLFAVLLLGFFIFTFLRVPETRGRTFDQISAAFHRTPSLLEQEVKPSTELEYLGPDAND
Here is the method: as §1, §2

In another assay the target is T4, hsGLUT4 N508A (human, UniProt P14672 1-509).
T4 sequence: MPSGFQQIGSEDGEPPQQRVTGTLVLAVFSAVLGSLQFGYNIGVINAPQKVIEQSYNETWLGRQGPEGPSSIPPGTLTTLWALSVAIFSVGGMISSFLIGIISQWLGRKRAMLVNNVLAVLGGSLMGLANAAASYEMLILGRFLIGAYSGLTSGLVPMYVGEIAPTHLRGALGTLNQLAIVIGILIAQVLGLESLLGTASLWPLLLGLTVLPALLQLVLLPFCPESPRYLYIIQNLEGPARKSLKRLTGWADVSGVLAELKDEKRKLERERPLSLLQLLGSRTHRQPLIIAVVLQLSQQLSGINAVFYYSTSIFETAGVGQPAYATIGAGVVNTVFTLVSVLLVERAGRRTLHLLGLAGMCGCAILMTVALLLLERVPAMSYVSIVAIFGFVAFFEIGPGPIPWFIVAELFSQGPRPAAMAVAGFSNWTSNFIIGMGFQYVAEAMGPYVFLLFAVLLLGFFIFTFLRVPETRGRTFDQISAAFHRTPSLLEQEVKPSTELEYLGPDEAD
Here is the method: as §1, §2

B1: AB102 (Fc fusion)
scFv: ALTQPSSVSANLGGTVKITCSGGGSYGYGWYQQKSPGSAPVTVIYSNDQRPSDIPSRFSGSKSGSTATLTITGVRAEDEAIYYCGSTDSDYVGIFGAGTTLTVLGQSSRSSGGGGSSGGGGSAVTLDESGGGLQTPGGTLSLVCKASGFDFSSYATIWVRQAPGKGLEWVAGISGTGTGSSTGYAPAVKGRATISRDNGQSTVRLQLNNLRAEDTGSYFCAKSTGYGDSWIYPDSIDAWGHGTEVIVSS
notes: also called MAb AB102; not shown: Fc fragment of human IgG1, cloned in frame with the scFv
With B1, the “% of binding to wild type GLUT4” value with hsGLUT4 E162A was 7%; with hsGLUT4 I163A, 28%; with hsGLUT4 E507A it was 97%; with hsGLUT4 N508A, 70%.
